The text below walks through data of article PMC3942532 (2014).

This assay has as its target dynorphin A-(1-13)-OH 1-13 (Homo sapiens, UniProt P01213). Kind of assay: radioligand competition.

B1: mu opioid receptor (protein)
chain: MDSSTGPGNTSDCSDPLAQASCSPAPGSWLNLSHVDGNQSDPCGLNRTGLGGNDSLCPQTGSPSMVTAITIMALYSIVCVVGLFGNFLVMYVIVRYTKMKTATNIYIFNLALADALATSTLPFQSVNYLMGTWPFGTILCKIVISIDYYNMFTSIFTLCTMSVDRYIAVCHPVKALDFRTPRNAKIVNVCNWILSSAIGLPVMFMATTKYRQGSIDCTLTFSHPTWYWENLLKICVFIFAFIMPVLIITVCYGLMILRLKSVRMLSGSKEKDRNLRRITRMVLVVVAVFIVCWTPIHIYVIIKALITIPETTFQTVSWHFCIALGYTNSCLNPVLYAFLDENFKRCFREFCIPTSSTIEQQNSTRVRQNTREHPSTANTVDRTNHQLENLEAETAPLP
B1: the inhibition constant Ki (in general, a measure of affinity in units of concentration, obtained from inhibition or displacement) came to 4 nM.
